Reference: patent US20160113911A1, “METHODS AND COMPOSITIONS FOR THE TREATMENT OF CANCER” (THE GENERAL HOSPITAL CORPORATION, priority 2013, published 2016)
Positions count from the first letter of the chain named. In names and notes the source's numbering stands.

B1: 2A-P326T: KDM4A mutation (protein)
chain: MASESETLNPSARIMTFYPTMEEFRNFSRYIAYIESQGAHRAGLAKVVPPKEWKPRASYDDIDDLVIPAPIQQLVTGQSGLFTQYNIQKKAMTVREFRKIANSDKYCTPRYSEFEELERKYWKNLTFNPPIYGADVNGTLYEKHVDEWNIGRLRTILDLVEKESGITIEGVNTPYLYFGMWKTSFAWHTEDMDLYSINYLHFGEPKSWYSVPPEHGKRLERLAKGFFPGSAQSCEAFLRHKMTLISPLMLKKYGIPFDKVTQEAGEFMITFPYGYHAGFNHGFNCAESTNFATRRWIEYGKQAVLCSCRKDMVKISMDVFVRKFQTERYKLWKAGKDNTVIDHTLPTPEAAEFLKESELPPRAGNEEECPEEDMEGVEDGEEGDLKTSLAKHRIGTKRHRVCLEIPQEVSQSELFPKEDLSSEQYEMTECPAALAPVRPTHSSVRQVEDGLTFPDYSDSTEVKFEELKNVKLEEEDEEEEQAAAALDLSVNPASVGGRLVFSGSKKKSSSSLGSGSSRDSISSDSETSEPLSCRAQGQTGVLTVHSYAKGDGRVTVGEPCTRKKGSAARSFSERELAEVADEYMFSLEENKKSKGRRQPLSKLPRHHPLVLQECVSDDETSEQLTPEEEAEETEAWAKPLSQLWQNRPPNFEAEKEFNETMAQQAPHCAVCMIFQTYHQVEFGGFNQNCGNASDLAPQKQRTKPLIPEMCFTSTGCSTDINLSTPYLEEDGTSILVSCKKCSVRVHASCYGVPPAKASEDWMCSRCSANALEEDCCLCSLRGGALQRANDDRWVHVSCAVAILEARFVNIAERSPVDVSKIPLPRFKLKCIFCKKRRKRTAGCCVQCSHGRCPTAFHVSCAQAAGVMMQPDDWPFVVFITCFRHKIPNLERAKGALQSITAGQKVISKHKNGRFYQCEVVRLTTETFYEVNFDDGSFSDNLYPEDIVSQDCLQFGPPAEGEVVQVRWTDGQVYGAKFVASHPIQMYQVEFEDGSQLVVKRDDVYTLDEELPKRVKSRLSVASDMRFNEIFTEKEVKQEKKRQRVINSRYREDYIEPALYRAIME
B2: 2A-P348L: KDM4A mutation (protein)
chain: B1 chain with T326P, P348L
B3: 2A-R498H: KDM4A mutation (protein)
chain: B1 chain with T326P, R498H
B4: 2A-D524V: KDM4A mutation (protein)
chain: B1 chain with T326P, D524V
B5: 2A-E558Q: KDM4A mutation (protein)
chain: B1 chain with T326P, E558Q
B6: 2A-G376V: KDM4A mutation (protein)
chain: B1 chain with T326P, G376V
B7: 2A-E426K: KDM4A mutation (protein)
chain: B1 chain with T326P, E426K
B8: 2A-V490M: KDM4A mutation (protein)
chain: B1 chain with T326P, V490M
B9: 2A-R400Q: KDM4A mutation (protein)
chain: B1 chain with T326P, R400Q
B10: 2A-E368K: KDM4A mutation (protein)
chain: B1 chain with T326P, E368K

Test system: H3K9me3
Assay: H3K9 demethylase activity of KDM4 variants in transfected cells
Assay type: cell-based
Set-up: key: + indicates active; − indicates inactive; +/− indicates partial acitivty
Conditions: KDM4A mutations

H3k9 Demethylase Activity, +:
B1
B2
B3
B4
B5
B6
B7
B8
B9
B10

Test system: H3K36me3
Assay: H3K36 demethylase activity of KDM4A variants in transfected cells (immunofluorescence)
Assay type: cell-based
Set-up: key: + indicates active; − indicates inactive; +/− indicates partial acitivty
Conditions: KDM4A mutations

H3k36 Demethylase Activity, +:
B1
B2
B3
B4
B5
B6
B7
B8
B9
B10
